{
  "source": "paper PMC12086574",
  "about": "(Molecular Biology of the Cell, 2025)",
  "target": "the molecule itself",
  "experiment": "SEC",
  "data": [
    {"protein": "His6-SEPT7G (domain or fragment) GFEFTLMVVGESGLGKSTLINSLFLTDLYSPEYPGPSHRIKKTVQVEQSKVLIKEGGVQLLLTIVDTPGFGDAVDNSNCWQPVIDYIDSKFEDYLNAESRVNRRQMPDNRVQCCLYFIAPSGHGLKPLDIEFMKRLHEKVNIIPLIAKADTLTPEECQQFKKQIMKEIQEHKIKIYEFPETDDEEENKLVKKIKDRLPLAVVGSNTIIEVNGKRVRGRQYPWGVAEVENGEHCDFTILRNMLIRTHMQDLKDVTNNVHYENYRSRKLAAVT", "values": [
      {"measurement": "stoichiometry N", "value": 2}
    ]}
  ]
}
